In the assay the target is T1, recombinant human interleukin 1 alpha (IL-1α) (human, UniProt P01583 113-271).
T1 sequence (looked up): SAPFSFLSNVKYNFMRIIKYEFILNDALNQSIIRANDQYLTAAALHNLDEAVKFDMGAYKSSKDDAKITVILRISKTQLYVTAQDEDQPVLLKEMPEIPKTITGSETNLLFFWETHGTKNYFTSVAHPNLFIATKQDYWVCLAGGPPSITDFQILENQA
Description: cell-based or functional assay.

B1: human monoclonal antibody designated XIA13 (antibody, V domains shown)
VH: QVQLVQSGAEVKKPGSSVKVSCKASGGRFTNYAILWVRQAPGQGLQWLGGIIPIFDETDHAQDFQDRLTITVDESMTTAYMELSSLRPEDTAIYYCATGSNSYYGLYWGQGTLVTVSS
VL: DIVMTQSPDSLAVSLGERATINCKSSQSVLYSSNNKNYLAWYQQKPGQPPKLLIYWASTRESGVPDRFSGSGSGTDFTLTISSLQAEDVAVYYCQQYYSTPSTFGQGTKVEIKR
Consider B1, for which the “HUVEC-based potency assay: ICAM-1 expression on HUVEC cells by flow cytometry, IC50” value was found to be 3.7 ng/mL.
